Laboratory results from paper PMC4270374 (Biochemistry, 2014).
Residue numbers refer to the chain shown, from its start. Names and notes keep the numbering of the source.

B1: AfUGMY104A (UDP-galactopyranose mutase from Aspergillus fumigatus, Y104A on the K344A/K345A background) (enzyme)
chain: MTHPDISVDVLVIGAGPTGLGAAKRLNQIDGPSWMIVDSNETPGGLASTDVTPEGFLYDVGGHVIFSHYKYFDDCLDEALPKEDDWYTHQRISYVRCQGQWVPAPFQNNISMLPKEEQVKCIDGMIDAALEARVANTKPKTFDEWIVRMMGTGIADLFMRPYNFKVWAVPTTKMQCAWLGERVAAPNLKAVTTNVILGKTAGNWGPNATFRFPARGGTGGIWIAVANTLPKEKTRFGEKGKVTKVNANNKTVTLQDGTTIGYKKLVSTMAVDFLAEAMNDQELVGLTKQLFYSSTHVIGVGVRGSRPERIGDKCWLYFPEDNCPFYRATIFSNYSPYNQPEASAALPTMQLADGSRPQSTEAKEGPYWSIMLEVSESSMKPVNQETILADCIQGLVNTEMLKPTDEIVSTYHRRFDHGYPTPTLEREGALTQILPKLQDKDIWSRGRFGSWRYEVGNQDHSFMLGVEAVDNIVNGAVELTLNYPDFVNGRQNTERRLVDGAQVFAKSKAQ
B2: AfUGMN207A (UDP-galactopyranose mutase from Aspergillus fumigatus, N207A on the K344A/K345A background) (enzyme)
chain: B1 chain with A104Y, N207A
B3: AfUGMQ107A (UDP-galactopyranose mutase from Aspergillus fumigatus, Q107A on the K344A/K345A background) (enzyme)
chain: B1 chain with A104Y, Q107A
B4: AfUGMY317A (UDP-galactopyranose mutase from Aspergillus fumigatus, Y317A on the K344A/K345A background) (enzyme)
chain: B1 chain with A104Y, Y317A

Target: the molecule itself
Assay: crystal structure

Protein	stoichiometry N
B1	4
B2	4
B3	4
B4	4
